Reference: IntAct's records for PubMed 25770211

B1: 5-hydroxytryptamine receptor 2C (Homo sapiens), P28335 (parent)
chain: MVNLRNAVHSFLVHLIGLLVWQSDISVSPVAAIVTDIFNTSDGGRFKFPDGVQNWPALSIVIIIIMTIGGNILVIMAVSMEKKLHNATNYFLMSLAIADMLVGLLVMPLSLLAILYDYVWPLPRYLCPVWISLDVLFSTASIMHLCAISLDRYVAIRNPIEHSRFNSRTKAIMKIAIVWAISIGVSVPIPVIGLRDEEKVFVNNTTCVLNDPNFVLIGSFVAFFIPLTIMVITYCLTIYVLRRQALMLLHGHTEEPPGLSLDFLKCCKRNTAEEENSANPNQDQNARRRKKKERRPRGTMQAINNERKASKVLGIVFFVFLIMWCPFFITNILSVLCEKSCNQKLMEKLLNVFVWIGYVCSGINPLVYTLFNKIYRRAFSNYLRCNYKVEKKPPVRQIPRVAATALSGRELNVNIYRHTNEPVIEKASDNEPGIEMQVENLELPVNPSSVVSERISSV
partner: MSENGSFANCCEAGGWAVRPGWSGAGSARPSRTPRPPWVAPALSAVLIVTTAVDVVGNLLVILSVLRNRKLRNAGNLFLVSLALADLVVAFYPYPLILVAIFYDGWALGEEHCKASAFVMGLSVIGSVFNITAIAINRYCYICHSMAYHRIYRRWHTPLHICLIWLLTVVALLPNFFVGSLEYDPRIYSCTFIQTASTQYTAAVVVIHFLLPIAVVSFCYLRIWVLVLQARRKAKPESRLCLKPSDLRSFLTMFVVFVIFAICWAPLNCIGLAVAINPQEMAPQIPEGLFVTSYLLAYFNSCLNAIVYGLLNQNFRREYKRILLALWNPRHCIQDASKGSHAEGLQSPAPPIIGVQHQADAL

Variants of: B1
Settings: with mtr1b_human MTNR1B

Variant	effect of a mutation on the interaction
MVNLRNAVHSFLVHLIGLLVWQSDISVSPVAAIVTDIFNTSDGGRFKFPDGVQNWPALSIVIIIIMTIGGNILVIMAVSMEKKLHNATNYFLMSLAIADMLVGLLVMPLSLLAILYDYVWPLPRYLCPVWISLDVLFNTASIMHLCAISLDRYVAIRNPIEHSRFNSRTKAIMKIAIVWAISIGVSVPIPVIGLRDEEKVFVNNTTCVLNDPNFVLIGSFVAFFIPLTIMVITYCLTIYVLRRQALMLLHGHTEEPPGLSLDFLKCCKRNTAEEENSANPNQDQNARRRKKKERRPRGTMQAINNERKASKVLGIVFFVFLIMWCPFFITNILSVLCEKSCNQKLMEKLLNVFVWIGYVCSGINPLVYTLFNKIYRRAFSNYLRCNYKVEKKPPVRQIPRVAATALSGRELNVNIYRHTNEPVIEKASDNEPGIEMQVENLELPVNPSSVVSERISSV [S138N]	with no effect
